target: Orphanin FQ receptor, normal (NT), expressed in Cos-7 cells (UniProt P35370); test: inhibition of [125I] Y14-OFQ17 binding, Cos-7 cells transfected with OFQR

Row | Binder | IC50
1 | FGGFTGAKKSARKLANQ [synthetic OFQ17 with R8K] | 0.1 nM
2 | FGGFTGARKSARCLANQ [synthetic OFQ17 with K13C] | 0.1 nM
3 | FGGFTGARKSA [OFQ11] | 5000 nM
